Data published in publication PMC7911427, “Interactions of Bacillus subtilis Basement Spore Coat Layer Proteins” (Microorganisms, 2021).

T1: SpoIVA, adenylate cyclase T18/T25 hybrid (Bacillus subtilis, UniProt P35149 1-492)
T1 construct: SpoIVA, basement layer coat morphogenetic protein (ATPase) of Bacillus subtilis; gene amplified from genomic DNA; also called T25-SpoIVA; T18-SpoIVA; source: bacterial two-hybrid fusion, E. coli BTH101; not shown: T18 or T25 domain of adenylate cyclase, N-terminal or C-terminal (by the plasmid combination), kept
T1 sequence (looked up): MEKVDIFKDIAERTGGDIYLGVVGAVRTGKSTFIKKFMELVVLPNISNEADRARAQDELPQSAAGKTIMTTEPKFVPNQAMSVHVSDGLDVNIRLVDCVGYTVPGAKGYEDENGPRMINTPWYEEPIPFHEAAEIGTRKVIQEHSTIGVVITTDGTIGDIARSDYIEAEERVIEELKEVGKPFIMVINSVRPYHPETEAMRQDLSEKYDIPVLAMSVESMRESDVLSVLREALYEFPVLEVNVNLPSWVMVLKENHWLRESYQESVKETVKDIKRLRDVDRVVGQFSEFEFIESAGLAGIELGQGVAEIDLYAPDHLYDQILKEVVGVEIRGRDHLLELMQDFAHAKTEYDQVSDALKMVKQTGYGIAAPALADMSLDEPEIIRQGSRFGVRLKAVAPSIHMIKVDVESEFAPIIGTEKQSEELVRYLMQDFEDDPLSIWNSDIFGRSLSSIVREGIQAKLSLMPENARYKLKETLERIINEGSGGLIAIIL

B1: CotE, adenylate cyclase T18/T25 hybrid (natural protein, Bacillus subtilis, UniProt P14016 1-181, looked up)
chain: MSEYREIITKAVVAKGRKFTQCTNTISPEKKPSSILGGWIINHKYDAEKIGKTVEIEGYYDINVWYSYADNTKTEVVTERVKYVDVIKLRYRDNNYLDDEHEVIAKVLQQPNCLEVTISPNGNKIVVQAEREFLAEVVGETKVVVEVNPDWEEDDEEDWEDELDEELEDINPEFLVGDPEE
notes: CotE, spore coat morphogenetic protein of Bacillus subtilis; gene amplified from genomic DNA; also called CotE-T25; T25-CotE; source: bacterial two-hybrid fusion, E. coli BTH101; not shown: T18 or T25 domain of adenylate cyclase, N-terminal or C-terminal (by the plasmid combination), kept

Columns and labels:
Assay in all cases: two-hybrid; bacterial two hybrid system (BACTH) based on adenylate cyclase T18/T25 fusions in E. coli BTH101; X-gal/IPTG indicator plates at 30 °C for 48 h; beta-galactosidase activity with ONPG in Miller units (Mu)
[1] = target: the molecule itself
[2] = target: T2, SpoVM, adenylate cyclase T18/T25 hybrid (Bacillus subtilis, UniProt P37817 1-26); conditions: partners not purified
T2 construct: SpoVM, small 26-amino-acid-long basement layer coat morphogenetic peptide of Bacillus subtilis; gene amplified from genomic DNA; also called T18–SpoVM; SpoVM–T18; source: bacterial two-hybrid fusion, E. coli BTH101; not shown: T18 or T25 domain of adenylate cyclase, N-terminal or C-terminal (by the plasmid combination), kept

[3] = target: B1; conditions: partners not purified
[4] = target: T1, SpoIVA, adenylate cyclase T18/T25 hybrid; conditions: partners not purified

T2 sequence (P37817 whole entry, the tested form may be a part): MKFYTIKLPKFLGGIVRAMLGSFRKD

Row | Binder | beta-galactosidase activity (Miller units) [1] [Mu] | also measured
1 | SpoVE, adenylate cyclase T18/T25 hybrid (natural protein, Bacillus subtilis, UniProt P07373 1-366, looked up, SpoVE, SEDS family membrane protein essential for cortex synthesis, Bacillus subtilis; gene amplified from genomic DNA; also called SpoVE–T18; T25–SpoVE; source: bacterial two-hybrid fusion, E. coli BTH101; not shown: T18 or T25 domain of adenylate cyclase, N-terminal or C-terminal (by the plasmid combination), kept) MTTKKTSPDLLLVIITLLLLTIGLIMVYSASAVWADYKFDDSFFFAKRQLLFAGIGVIAMFFIMNVDYWTWRTWSKLLMVICFFLLVLVLIPGVGMVRNGSRSWIGVGAFSIQPSEFMKLAMIAFLAKFLSEKQKNITSFRRGFVPALGIVFSAFLIIMCQPDLGTGTVMVGTCIVMIFVAGARIAHFVFLGLIGLSGFVGLVLSAPYRIKRITSYLNPWEDPLGSGFQIIQSLYAVGPGGLFGMGLGQSRQKFFYLPEPQTDFIFAILSEELGFIGGTLILLLFSVLLWRGIRIALGAPDLYGSFVAVGIISMIAIQVMINIGVVTGLIPVTGITLPFLSYGGSSLTLMLMAVGVLLNVSRYSRY | ≤ 360 | beta-galactosidase activity, fold of the negative control [2]: ~2 fold
2 | YhaX, adenylate cyclase T18/T25 hybrid (natural protein, Bacillus subtilis, UniProt O07539 1-288, looked up, YhaX, spore coat protein of unknown function of Bacillus subtilis; gene amplified from genomic DNA; also called T25–YhaX; YhaX–T18; source: bacterial two-hybrid fusion, E. coli BTH101; not shown: T18 or T25 domain of adenylate cyclase, N-terminal or C-terminal (by the plasmid combination), kept) MSKQLLALNIDGALLRSNGKIHQATKDAIEYVKKKGIYVTLVTNRHFRSAQKIAKSLKLDAKLITHSGAYIAEKIDAPFFEKRISDDHTFNIVQVLESYQCNIRLLHEKYSIGNKKKVNSNLLGKALIHPSDPIFYPVQFVESLSDLLMDEPVSAPVIEVYTEHDIQHDITETITKAFPAVDVIRVNDEKLNIVPKGVSKEAGLALVASELGLSMDDVVAIGHQYDDLPMIELAGLGVAMGNAVPEIKRKADWVTRSNDEQGVAYMMKEYFRMQQRKGFLDKFHMKRV | 704 | –
3 | YncD (spore alanine racemase), adenylate cyclase T18/T25 hybrid (natural protein, Bacillus subtilis, UniProt P94494 1-394, looked up, YncD, spore alanine racemase of Bacillus subtilis; gene amplified from genomic DNA of strain PY79; Cloned into pUT18, pUT18C, pKT25 and pKNT25; also called T18-YncD; YncD-T18; source: bacterial two-hybrid fusion, E. coli BTH101; not shown: T18 or T25 domain of adenylate cyclase, N-terminal or C-terminal (by the plasmid combination), kept) MIKLCREVWIEVNLDAVKKNLRAIRRHIPHKSKIMAVVKANGYGHGSIEVARHALEHGASELAVASVEEGIVLRKAGITAPILVLGFTSLSCVKKSAAWNITLSAFQVDWMKEANEILEKEASANRLAIHINVDTGMGRLGVRTKEELLEVVKALKASKFLRWTGIFTHFSTADEPDTTLTKLQHEKFISFLSFLKKQGIELPTVHMCNTAAAIAFPEFSADMIRLGIGLYGLYPSAYIKQLNLVKLEPALSLKARIAYVKTMRTEPRTVSYGATYIAEPNEVIATLPIGYADGYSRALSNRGFVLHRGKRVPVAGRVTMDMIMVSLGENGEGKQGDEVVIYGKQKGAEISVDEVAEMLNTINYEVVSTLSRRIPRFYIRDGEIFKVSTPVLYV | 220 | beta-galactosidase activity (Miller units) [3]: 600 Mu; beta-galactosidase activity (Miller units) [4]: 160 Mu
4 | YheD, adenylate cyclase T18/T25 hybrid (natural protein, Bacillus subtilis, UniProt O07545 1-453, looked up, YheD, spore coat protein of unknown function of Bacillus subtilis; gene amplified from genomic DNA; also called T25–YheD; YheD–T18; source: bacterial two-hybrid fusion, E. coli BTH101; not shown: T18 or T25 domain of adenylate cyclase, N-terminal or C-terminal (by the plasmid combination), kept) MNPKRFLIGIDKTSENTLFLPSSLKQDGLLHAAFGTKVVRCHVAYRRHLEQTVLLSENLFHELLLPHRSRADILIHDHTVHIGPLVGIFTAGFTVSLERPFKDRSLFFSKLVTLHEQAGGYCFVFGAHQINWEEGTIEGLLYRENGWEKKIVPLPNVVYDRLPNRKIEDSLLLQHTKKRLIDEYQIPWFNKTFFNKWNVHQLLEKDPRTAPFLPRSELTPSVELIDELCGAYKKVYIKPANGALGTGIYQLTRTDGGLTVKHTNDAKTFTSIDYSDAASFLAEFQKHHNPSDFLIQQGVDLIEFQGKPADFRVHTNKNRKGKWTVTAIAVKISGKNSITTHLSNGGTVKTLAEVYDDPAERVEVIKKLSAAALTASHVLHDHIEGFIGEIGFDFGIDQNGKVWMFEANSRPGRSIFSHPNLHHVDSLTKRRSFEYASYLSEKAITSPEALWPS | 1720 | –
5 | B1 | 360 | –
6 | SpoVD, adenylate cyclase T18/T25 hybrid (natural protein, Bacillus subtilis, UniProt Q03524 1-646, looked up, gene amplified from genomic DNA; the positive combinations are N-terminal fusions; also called T18–SpoVD; T25–SpoVD; source: bacterial two-hybrid fusion, E. coli BTH101; not shown: T18 or T25 domain of adenylate cyclase, N-terminal, kept) MRVSNVTVRKRLLFVLLFGVIVFLIIDTRLGYVQFVMGEKLTSLAKDSWSRNLPFEPERGEILDRNGVKLATNKSAPTVFVVPRQVQNPMKTSKQLAAVLNMSEEKVYKHVTKKASIEKITPEGRKISNEKAKEIKALDLKGVYVAEDSIRHYPFGSFLSHVLGFAGIDNQGLLGLEAYYDDDLKGEKGSVKFYTDAKGKKMPDEADDYTPPKDGLDMKLTVDSKVQTIMERELDNAEAKYHPDGMIAVAMNPKNGEILGMSSRPDFDPADYQSVDPSVYNRNLPVWSTYEPGSTFKIITLAAALEEQKVNLKRDQFYDKGHAEVDGARLRCWKRGGHGLQTYLEVVQNSCNPGFVELGERLGKEKLFKYIKDFGFGQKTGIDLQGEGTGILFPLERVGPVEQATTAFGQGVSVTPIQQVAAVSAAVNGGTLYTPYIAKEWIDPVTKKTVKKQSPIAKKQVISEETSKQIRYALESVVAEGTGRNAFVEGYRVGGKTGTAQKVKDGKYLENNHIVSFIGFAPADDPSLVVYVAVDNPKGTIQFGGTVAAPIVGNIMRDSLPELGVKPRKNQIEKKYQWNDTKTIEVPNVVGMSVSDLESLLVNLNVDASGKGSKIVKQSPAAGTKVKEGSKIRVYLTEEDEKEAAD | 240 | beta-galactosidase activity (Miller units) [2]: 420 Mu
